1 variant from IntAct's records for PubMed 12058072 can be followed below.

The labels stand for the following.
B1: Serine/threonine-protein kinase GIN4 (Saccharomyces cerevisiae), Q12263 (parent)
chain: MAINGNSIPAIKDNTIGPWKLGETLGLGSTGKVQLARNGSTGQEAAVKVISKAVFNTGNVSGTSIVGSTTPDALPYGIEREIIIMKLLNHPNVLRLYDVWETNTDLYLVLEYAEKGELFNLLVERGPLPEHEAIRFFRQIIIGVSYCHALGIVHRDLKPENLLLDHKYNIKIADFGMAALETEGKLLETSCGSPHYAAPEIVSGIPYQGFASDVWSCGVILFALLTGRLPFDEEDGNIRTLLLKVQKGEFEMPSDDEISREAQDLIRKILTVDPERRIKTRDILKHPLLQKYPSIRDSKSIRGLPREDTYLTPLSESNSSIDATILQNLVILWHGRDPEGIKEKLREPGANAEKTLYALLYRFKCDTQKELIKQQQVKKRQSISSVSVSPSKKVSTTPQRRRNRESLISVTSSRKKPISFNKFTASSASSSNLTTPGSSKRLSKNFSSKKKLSTIVNQSSPTPASRNKRASVINVEKNQKRASIFSTTKKNKRSSRSIKRMSLIPSMKRESVTTKLMSTYAKLAEDDDWEYIEKETKRTSSNFATLIDEIFEYEKYEQIRKEKEELERKVREAKAREELERRRRKQEEKERARKLLEKEDLKRKQEELKKQIEIDISDLEQELSKHKEEKLDGNIRSISAPMENEEKNINHLEVDIDNILRRRNFSLQTRPVSRLDPGIMFSSPTEEVSPVEPKRTENERLTTEKKILETIRRSKFLGSSFNIDKELKLSKMEYPSIIAPQRLSEERVVSDSNDGYESLILPKDGNGVSQLKDSTATTAPVSDGRLRKISEIRVPQFTRKSRHFSESNKRLSVLSMYSTKESFTNLVDILKNGNLDVNNQQSQRIPTPRSADDSEFLFETVNEEAEYTGNSSNDERLYDVGDSTIKDKSALKLNFADRFNGSNEAKQTDNLHLPILPPLNGDNELRKQNSQEGDQAHPKIKSMIPESGSSSHTEKEEENEEKEEKKPEQHKQEEDQEKREKVVDDMEPPLNKSVQKIREKNAGSQAKDHSKDHLKEHKQDKNTAIGNGSFFRKFSKSSDKTMELYAKISAKQLFNGLEKLLRGWTQYGLKNIKSHPNNLTLTGKLSSDNIFSLRSTLFEVNIYPRGKMSVVQFKKVSGSFKAVKKLVNEVENVLNKEGVLQK
partner: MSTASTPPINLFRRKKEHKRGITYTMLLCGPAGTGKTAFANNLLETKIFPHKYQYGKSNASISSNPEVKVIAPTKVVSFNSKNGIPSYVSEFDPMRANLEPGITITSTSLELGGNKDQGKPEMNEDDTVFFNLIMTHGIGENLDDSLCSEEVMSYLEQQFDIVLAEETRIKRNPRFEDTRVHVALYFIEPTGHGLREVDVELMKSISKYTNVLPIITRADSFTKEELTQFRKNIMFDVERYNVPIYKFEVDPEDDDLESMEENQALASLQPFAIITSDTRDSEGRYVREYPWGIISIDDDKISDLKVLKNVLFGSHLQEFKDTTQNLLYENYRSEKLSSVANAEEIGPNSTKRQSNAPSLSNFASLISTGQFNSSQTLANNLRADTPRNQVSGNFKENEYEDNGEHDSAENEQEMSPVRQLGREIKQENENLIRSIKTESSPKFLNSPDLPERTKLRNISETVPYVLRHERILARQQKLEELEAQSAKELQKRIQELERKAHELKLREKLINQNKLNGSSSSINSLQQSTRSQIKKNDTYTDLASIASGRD

The variants in this experiment derive from B1. The note with it: with shs1_yeast SHS1, Q07657.
Take K48A: the “effect of a mutation on the interaction” value is on record as “disrupting interaction”.
